To fix the notation:
B1: Syntaxin-binding protein 4, residues 493 to 538; numbered along this chain, Q6ZWJ1 (parent)
chain: LDMDCLPYGWEEAYTADGIKYFINHVTQTTSWIHPVMSVLNLSRSE

This passage reports abundance fitness results from the Human Domainome abundance scans (Beltran et al. 2025).

± gives the uncertainty stated by the source.

The variants in this series derive from B1. Nature of the series: abundance fitness (aPCA) (normalised: wild type 0, dead -1); higher = more abundant; growth selection in yeast, the domain comes from the species named. To be noted: Homo sapiens.
Turning to P35R, the abundance fitness was -0.88 ± 0.097.

As to P35M, the abundance fitness was -0.814 ± 0.14.

With P35V, the abundance fitness is -0.882 ± 0.1.

Turning to P35I, the abundance fitness is -0.82 ± 0.16.

For P35K, the abundance fitness was -0.533 ± 0.15.

As to P35N, the abundance fitness was -0.862 ± 0.18.

Regarding P35F, the abundance fitness is -0.895 ± 0.16.

In the case of P35W, the abundance fitness was -0.775 ± 0.16.

P35C: the abundance fitness was -1.06 ± 0.21.

Take P35A: the abundance fitness is -1.01 ± 0.11.

P35S: the abundance fitness was -0.661 ± 0.11.

Turning to T27F, the abundance fitness stood at 0.071 ± 0.25.

Turning to T27M, the abundance fitness is 0.168 ± 0.1.

On to T27V, for which the abundance fitness is -0.872 ± 0.1.

Take T27N: the abundance fitness is -0.407 ± 0.2.

Consider T27H, for which the abundance fitness stood at 0.176 ± 0.16.

For the variant T27L, the abundance fitness came to 0.644 ± 0.091.

T27K: the abundance fitness was -0.045 ± 0.13.

Take T27E: the abundance fitness was -0.672 ± 0.13.

Consider T27P, for which the abundance fitness is -0.772 ± 0.14.

For the variant T27I, the abundance fitness was -0.814 ± 0.25.

For the variant T27Y, the abundance fitness was found to be 0.394 ± 0.15.

Regarding T27R, the abundance fitness is -0.234 ± 0.081.

For the variant T27G, the abundance fitness is -0.248 ± 0.079.

On to T27W, for which the abundance fitness was -0.179 ± 0.1.

As to T27Q, the abundance fitness is -0.344 ± 0.14.

Turning to T27A, the abundance fitness was -0.513 ± 0.096.

As to T27D, the abundance fitness is -0.127 ± 0.16.

Turning to T27S, the abundance fitness was -0.348 ± 0.1.

Turning to I19M, the abundance fitness was 0.313 ± 0.091.

On to I19T, for which the abundance fitness amounted to 0.234 ± 0.094.

Regarding I19A, the abundance fitness turned out to be 0.708 ± 0.078.

With I19H, the abundance fitness was 0.293 ± 0.11.

As for I19G, the abundance fitness was -0.062 ± 0.073.

On to I19K, for which the abundance fitness is 0.791 ± 0.12.

As for I19V, the abundance fitness stood at 0.054 ± 0.076.

Regarding I19W, the abundance fitness is -0.566 ± 0.1.

Regarding I19S, the abundance fitness is 0.634 ± 0.083.

In the case of I19C, the abundance fitness was 0.348 ± 0.1.

For I19E, the abundance fitness came to 1.09 ± 0.082.

For I19R, the abundance fitness stood at 0.428 ± 0.074.

As for I19P, the abundance fitness is -0.761 ± 0.14.

As for I19F, the abundance fitness was -0.352 ± 0.12.

As for I19N, the abundance fitness stood at 0.65 ± 0.12.

On to I19D, for which the abundance fitness came out at 0.771 ± 0.1.

With I19Y, the abundance fitness was -0.034 ± 0.16.

Turning to I19Q, the abundance fitness came to 0.7 ± 0.093.

Consider T29V, for which the abundance fitness was found to be 0.766 ± 0.1.

For T29A, the abundance fitness was -0.486 ± 0.15.

Consider T29W, for which the abundance fitness is -0.556 ± 0.47.

T29M: the abundance fitness is -0.789 ± 0.19.

Consider T29H, for which the abundance fitness is -0.847 ± 0.13.

T29I: the abundance fitness was 0.226 ± 0.1.

Regarding T29N, the abundance fitness was -0.759 ± 0.14.

As to T29Y, the abundance fitness is -0.61 ± 0.13.

Regarding T29L, the abundance fitness is -0.969 ± 0.12.

T29S: the abundance fitness is -0.475 ± 0.098.

For T29R, the abundance fitness was -0.594 ± 0.14.

For the variant T29D, the abundance fitness was -0.777 ± 0.17.

T29G: the abundance fitness was -0.777 ± 0.24.

Take T29F: the abundance fitness was -0.674 ± 0.12.

With T29K, the abundance fitness was -0.759 ± 0.46.

Consider T29Q, for which the abundance fitness was -0.956 ± 0.39.

Regarding T29C, the abundance fitness worked out at 0.271 ± 0.12.

Take Y21S: the abundance fitness is -0.778 ± 0.11.

With Y21W, the abundance fitness is -0.674 ± 0.099.

As to Y21F, the abundance fitness is -0.91 ± 0.24.

Consider Y21R, for which the abundance fitness was -0.962 ± 0.1.

With Y21D, the abundance fitness was -0.989 ± 0.18.

Regarding Y21G, the abundance fitness is -0.873 ± 0.092.

For Y21N, the abundance fitness was -0.731 ± 0.19.

For Y21A, the abundance fitness is -0.952 ± 0.12.

Regarding Y21T, the abundance fitness is -0.93 ± 0.14.

Y21H: the abundance fitness was -1.05 ± 0.22.

For the variant Y21K, the abundance fitness was -0.923 ± 0.17.

For Y21C, the abundance fitness was -0.908 ± 0.14.

As for Y21M, the abundance fitness is -1.03 ± 0.17.

As to Y21V, the abundance fitness is -0.998 ± 0.11.

In the case of Y21E, the abundance fitness is -0.953 ± 0.14.

In the case of Y21Q, the abundance fitness was -0.544 ± 0.13.

For Y21I, the abundance fitness was -0.894 ± 0.36.

Regarding V26W, the abundance fitness was -0.846 ± 0.12.

In the case of V26I, the abundance fitness was -0.038 ± 0.094.

In the case of V26M, the abundance fitness was -0.29 ± 0.11.

Turning to V26S, the abundance fitness is -0.07 ± 0.098.

Consider V26G, for which the abundance fitness was 0.022 ± 0.08.

For V26T, the abundance fitness was 0.168 ± 0.12.

Turning to V26R, the abundance fitness is -0.096 ± 0.08.

V26A: the abundance fitness is 0.058 ± 0.094.

With V26F, the abundance fitness was -0.294 ± 0.15.

Turning to V26K, the abundance fitness is -0.29 ± 0.27.

In the case of V26H, the abundance fitness stood at 0.137 ± 0.14.

On to V26D, for which the abundance fitness was -0.087 ± 0.14.

As for V26L, the abundance fitness is -0.482 ± 0.1.

In the case of V26Q, the abundance fitness was -0.004 ± 0.2.

As to H25E, the abundance fitness is -0.502 ± 0.13.

On to H25M, for which the abundance fitness was -0.94 ± 0.22.

For the variant H25A, the abundance fitness was -0.927 ± 0.12.

Consider H25L, for which the abundance fitness is -0.931 ± 0.15.

On to H25D, for which the abundance fitness is -1.1 ± 0.22.

Regarding H25C, the abundance fitness was -0.824 ± 0.18.

For H25F, the abundance fitness was -0.514 ± 0.35.

Regarding H25S, the abundance fitness is -0.006 ± 0.11.

Regarding H25G, the abundance fitness is -0.687 ± 0.091.

With H25P, the abundance fitness is -0.236 ± 0.19.

H25K: the abundance fitness is 0.25 ± 0.15.

For the variant H25I, the abundance fitness is -0.754 ± 0.27.

For the variant H25R, the abundance fitness came to 0.108 ± 0.085.

Turning to H25W, the abundance fitness is -0.916 ± 0.14.

On to H25V, for which the abundance fitness is -0.67 ± 0.11.

Turning to H25N, the abundance fitness turned out to be 0.599 ± 0.34.

With H25T, the abundance fitness was 0.033 ± 0.18.

On to H25Y, for which the abundance fitness is -0.941 ± 0.21.

Turning to K20L, the abundance fitness was -0.794 ± 0.094.

Regarding K20C, the abundance fitness is -0.753 ± 0.1.

For K20D, the abundance fitness is -0.743 ± 0.14.

As for K20N, the abundance fitness is -0.54 ± 0.19.

In the case of K20I, the abundance fitness is -0.853 ± 0.19.

In the case of K20H, the abundance fitness is -0.444 ± 0.18.

As to K20W, the abundance fitness is -0.686 ± 0.1.

Consider K20Y, for which the abundance fitness was -0.783 ± 0.15.

On to K20Q, for which the abundance fitness was -0.897 ± 0.13.

In the case of K20G, the abundance fitness is -0.857 ± 0.087.

In the case of K20F, the abundance fitness is -0.919 ± 0.17.

In the case of K20R, the abundance fitness is -0.198 ± 0.075.

K20T: the abundance fitness is -0.767 ± 0.13.

For K20S, the abundance fitness is -0.836 ± 0.1.

With K20A, the abundance fitness is -0.699 ± 0.089.

Take K20P: the abundance fitness was -0.141 ± 0.094.

As for K20M, the abundance fitness was -0.848 ± 0.12.

Turning to K20V, the abundance fitness is -0.717 ± 0.089.

For the variant V36A, the abundance fitness worked out at 0.59 ± 0.083.

Turning to V36R, the abundance fitness is 0.712 ± 0.081.

On to V36T, for which the abundance fitness came to 0.526 ± 0.095.

On to V36N, for which the abundance fitness was 0.571 ± 0.14.

Take V36D: the abundance fitness worked out at 0.168 ± 0.11.

In the case of V36C, the abundance fitness came to 0.585 ± 0.11.

Turning to V36G, the abundance fitness came out at 0.528 ± 0.082.

V36K: the abundance fitness stood at 0.746 ± 0.11.

With V36E, the abundance fitness is 0.44 ± 0.093.

On to V36Q, for which the abundance fitness amounted to 0.391 ± 0.1.

Consider V36I, for which the abundance fitness is -0.598 ± 0.15.

With V36L, the abundance fitness was -0.035 ± 0.082.

With V36Y, the abundance fitness is -0.254 ± 0.13.

For V36W, the abundance fitness was -0.424 ± 0.12.

In the case of V36P, the abundance fitness is -0.597 ± 0.12.

On to V36H, for which the abundance fitness stood at 0.224 ± 0.14.

As for V36F, the abundance fitness is -0.444 ± 0.12.

V36S: the abundance fitness was 0.659 ± 0.084.

Turning to W32K, the abundance fitness was -0.576 ± 0.12.

For W32S, the abundance fitness is -0.679 ± 0.11.

With W32T, the abundance fitness is -0.872 ± 0.15.

For W32Q, the abundance fitness was -0.86 ± 0.25.

On to W32P, for which the abundance fitness was -0.581 ± 0.14.

For the variant W32N, the abundance fitness is -0.342 ± 0.25.

W32V: the abundance fitness was -0.787 ± 0.12.

Consider W32L, for which the abundance fitness is -0.49 ± 0.097.

Regarding W32D, the abundance fitness is -0.539 ± 0.16.

For the variant W32R, the abundance fitness is -0.408 ± 0.085.

As for W32E, the abundance fitness was -0.628 ± 0.12.

In the case of W32A, the abundance fitness was -0.787 ± 0.11.

Regarding W32M, the abundance fitness is -0.151 ± 0.12.

For W32Y, the abundance fitness is -0.33 ± 0.17.

For the variant W32C, the abundance fitness was -0.346 ± 0.12.

With W32G, the abundance fitness was -0.664 ± 0.089.

Take W32F: the abundance fitness was -0.558 ± 0.16.

With W32H, the abundance fitness was -1.09 ± 0.29.
